Data from patent publication US20240011101A1, “METHOD OF DETERMINING RESISTANCE TO CHECKPOINT INHIBITOR THERAPIES” (Shattuck Labs, Inc., priority 2020, published 2024).

Columns and labels:
wild type CT26 cells = assay: RNA-seq gene expression (TPM) of wild type CT26 cells cultured with or without IFNγ; format: cell-based; details: 20 ng/mL mouse IFNγ, 24 hours, vs without IFNγ
Description: (§1) Three distinct vials of parental CT26 cells (ATCC; “experimental replicates”), two independently isolated tumors from “2nd round” mice, four independently isolated tumors from “4th round” mice (both “biological replicates”) were cultured with or without 20 ng/mL of mouse IFNγ (Biolegend) for 24 hours at […]. The following day, RNA was isolated from cells using Qiagen RNeasy reagents according to manufacturer's instructions, including QIASHREDDER homogenization and on-column DNaseI digestion. Isolated RNA was subjected to RNA-seq and data analysis. Briefly, sequencing libraries were generated and sequenced on an ILLUMINA HISEQ (2×150 paired end reads), targeting >20×10^6 reads per sample. Sequences were trimmed using TRIMMOMATIC v.0.36 and mapped to the Mus musculus GRCm38 reference genome using the STAR ALIGNER v.2.5.2b. Unique gene hit counts were calculated by using FEATURECOUNTS from the SUBREAD package v.1.5.2. Only unique reads that fell within exon regions were counted. Differential gene expression was determined using DESeq2, and the Wald test was used to generate p-values and log 2 fold changes; with log 2 fold change >1 and adjusted p-values <0.05 as cutoffs for significance.
Next, the effect of IFNγ on the expression of certain genes that are differentially expressed in the 4th generation anti-PD-1 resistant cells compared to the wild type CT26 cells was studied. Briefly, the parental CT26 cells, second generation anti-PD-1 resistant cells and 4th generation anti-PD-1 resistant cells were cultured with or without 20 ng/mL of mouse IFNγ (Biolegend) for 24 hours at 37° C./[…]. The following day, RNA was isolated from cells using Qiagen RNeasy reagents according to manufacturer's instructions, including QIASHREDDER homogenization and on-column DNaseI digestion. Isolated RNA was subjected to RNA-seq and data analysis. Briefly, sequencing libraries were generated and sequenced on an ILLUMINA HISEQ (2×150 paired end reads), targeting >20×10^6 reads per sample. Sequences were trimmed using TRIMMOMATIC v.0.36 and mapped to the Mus musculus GRCm38 reference genome using the STAR ALIGNER v.2.5.2b. Unique gene hit counts were calculated by using FEATURECOUNTS from the SUBREAD package v.1.5.2. Only unique reads that fell within exon regions were counted. Differential gene expression was determined using DESeq2, and the Wald test was used to generate p-values and log 2 fold changes; with log 2 fold change >1 and adjusted p-values <0.05 as cutoffs for significance.

[1] = system: 4th generation anti-PD-1 resistant cells; assay: RNA-seq gene expression (TPM) of 4th generation anti-PD-1 resistant CT26 cells cultured with or without IFNγ; format: cell-based, Mus musculus
Description: as §1
Next the transcriptomic profile of the 2nd and 4th generation anti-PD-1 resistant cell lines was studied by comparison with each other and with an anti-PD-1 primarily resistant cell line. The B16.F10 murine melanoma tumor cell line was used as a model of anti-PD-1 “primary resistance,” as these tumors are not responsive to anti-PD-1 therapy. Three distinct vials of parental CT26 cells (ATCC; “experimental replicates”), two independently isolated tumors from “2nd round” mice, four independently isolated tumors from “4th round” mice (both “biological replicates”), and two distinct vials of parental B16.F10 cells (ATCC; “experimental replicates were cultured with or without 20 ng/mL of mouse IFNγ (Biolegend) for 24 hours at 37° C./5% CO2 to assess in vitro responsiveness. This mimics how tumor cells respond in vivo, as immune cell infiltrate and secrete effector cytokines like IFNγ. The following day, RNA was isolated from cells using Qiagen RNeasy reagents according to manufacturers instructions, including QIASHREDDER homogenization and on-column DNaseI digestion. Isolated RNA was subjected to RNA-seq and data analysis. Briefly, sequencing libraries were generated and sequenced on an ILLUMINA HISEQ (2×150 paired end reads), targeting >20×10^6 reads per sample. Sequences were trimmed using TRIMMOMATIC v.0.36 and mapped to the Mus musculus GRCm38 reference genome using the STAR ALIGNER v.2.5.2b. Unique gene hit counts were calculated by using FEATURECOUNTS from the SUBREAD package v.1.5.2. Only unique reads that fell within exon regions were counted. Differential gene expression was determined using DESeq2, and the Wald test was used to generate p-values and log 2 fold changes; with log 2 fold change >1 and adjusted p-values <0.05 as cutoffs for significance. The DEGs were identified between untreated and IFNγ treated parental CT26. As shown in FIG. 4A (Left Panel), Log 2 fold-change was plotted in the heatmap and genes are hierarchical clustered based on parental CT26. Of these, 338 genes had usable data from the other datasets; and those values are shown in the other columns (FIG. 4A (Left Panel)). Genes separated into 3 major clusters (FIG. 4A (Left Panel)). Associated genes were input into PANTHER to identify pathways associated with the dysregulated genes and the GO pathways associated with the DEGs were identified. As shown in FIG. 4A (Right Panel), the upregulation of expression of the genes associated with following GO pathways was enriched in 2nd generation cells and 4th generation cells compared to both parental CT26 cells and B16.F10 cells: L-phenyl alanine catabolic process, phospholipid efflux, tyrosine catabolic process, positive regulation of transcription from RNA polymerase II promoter in response to acidic pH, and drug export. […]

B1: IFNγ: mouse IFNγ (Biolegend), cytokine added to cell cultures at 20 ng/mL for 24 hours (protein, UniProt P01580 23-155, looked up)
Interferon gamma: HGTVIESLESLNNYFNSSGIDVEEKSLFLDIWRNWQKDGDMKILQSQIISFYLRLFEVLKDNQAISNNISVIESHLITTFFSNSKAKKDAFMSIAKFEVNNPQVQRQAFNELIRVVHQLLPESSLRKRKRSRC
repressed: expression of CD274 ([1]; in the presence of IFNγ (20 ng/mL, 24 hours), FIG. 5A) | expression of B2m ([1]; in the presence of IFNγ (20 ng/mL, 24 hours), FIG. 5B) | expression of Stat1 ([1]; in the presence of IFNγ (20 ng/mL, 24 hours), FIG. 7A) | expression of Stat2 ([1]; in the presence of IFNγ (20 ng/mL, 24 hours), FIG. 7B) | expression of Irf1 ([1]; in the presence of IFNγ (20 ng/mL, 24 hours), FIG. 7C) | expression of Tap1 ([1]; in the presence of IFNγ (20 ng/mL, 24 hours), FIG. 7D) | expression of Ccl5 (RANTES) ([1]; in the presence of IFNγ (20 ng/mL, 24 hours), FIG. 9A) | expression of Cxcl10 (IP-10) ([1]; in the presence of IFNγ (20 ng/mL, 24 hours), FIG. 9B) | expression of Ifnb1 ([1]; in the presence of IFNγ (20 ng/mL, 24 hours), FIG. 9C)
downregulate: expression of type I and type II interferon genes (baseline hyperactivated) ([1]; CT26 anti-PD-1 resistant cells challenged with IFNγ (20 ng/mL, 24 hours), FIG. 4B)
increased: expression of Cd274 (PD-L1) (wild type CT26 cells; FIG. 5A) | expression of B2M (wild type CT26 cells; FIG. 5B) | expression of Trim7 (wild type CT26 cells; FIG. 5C) | expression of Lrg1 (wild type CT26 cells; FIG. 5D) | expression of Stat1 (wild type CT26 cells; FIG. 7A) | expression of Stat2 (wild type CT26 cells; FIG. 7B) | expression of Irf1 (wild type CT26 cells; FIG. 7C) | expression of Tap1 (wild type CT26 cells; FIG. 7D) | expression of Ccl5 (RANTES) (wild type CT26 cells; FIG. 9A) | expression of Cxcl10 (IP-10) (wild type CT26 cells; FIG. 9B) | expression of Ifnb1 (wild type CT26 cells; FIG. 9C)
overexpressed: expression of Trim7 ([1]; in response to IFNγ (20 ng/mL, 24 hours), FIG. 5C) | expression of Lrg1 ([1]; in response to IFNγ (20 ng/mL, 24 hours), FIG. 5D)
